The results in this text go back to patent publication US20210403591A1 (OSSIANIX, published 2021).

The target of test [1] is T1, recombinant human TfR-1, His-tagged (Sino Biological 11020-H07H) (human, UniProt P02786 89-760).
T1 construct: bought; His-tagged; also called hTfR1; hTfR-1
The test is described as follows: SPR, His-captured TfR1. The procedure:
(§1) Detailed binding kinetic analyses were performed to gain a better understanding of the relationship between affinity and brain penetration of the Clone H variants. Biacore surface plasmon resonance (SPR) analysis using immobilized mouse and human TfR-1 was performed for the clones (Table 5).
(§2) Binding kinetics of VNAR-Fcs was determined by surface plasmon resonance (Biacore T200, GE Healthcare). CMS chips were coated with anti-His antibodies (His Capture Kit, GE Healthcare) as recommended by the manufacturer and human or mouse his-tagged TfR1 (SinoBiological) at 10 ug/mL in HBS-EP+ (GE Healthcare) was captured at flow rate 10 ul/min (contact time 120 s). […] A flow cell without TfR1 captured served as a reference. Sensorgrams were fitted and kinetic constants were determined using Biacore T200 Evaluation software. Chips were regenerated in 10 mM Glycine-HCl, pH 1.5 (contact time: 120 s at flow rate 30 ul/min).

For test [2], the target named is T2, recombinant mouse TfR-1, His-tagged (Sino Biological 50741-M07H) (mouse, UniProt Q62351 89-763).
T2 construct: bought; His-tagged; also called mTfR1; mTfR-1
In words: SPR, His-captured TfR1. The procedure: as §1, §2

Test [3] has as its target purified WT mTfR-1 (ELISA coat) (mouse, UniProt Q62351 89-763). In words: ELISA, coated purified mTfR-1.
The target in test [4] is T3, purified mTfR1 mutant M1 (AGS) (mouse, UniProt Q62351 89-763).
T3 construct: also called N253A
The test is described as follows: ELISA, coated purified mTfR-1.

Test [5] deals with T4, purified mTfR1 mutant M2 (NAS) (mouse, UniProt Q62351 89-763).
T4 construct: also called G254A
In words: ELISA, coated purified mTfR-1.

Test [6] concerns the target T5, purified mTfR1 mutant M3 (NGA) (mouse, UniProt Q62351 89-763).
T5 construct: also called S255A
In words: ELISA, coated purified mTfR-1.

In test [7] the target is T4, purified mTfR1 mutant M2 (NAS). In words: ELISA, coated purified mTfR-1 mutant M2 (NAS) against WT.

T2 sequence (Q62351 89-763 limits assumed, stated change not applied): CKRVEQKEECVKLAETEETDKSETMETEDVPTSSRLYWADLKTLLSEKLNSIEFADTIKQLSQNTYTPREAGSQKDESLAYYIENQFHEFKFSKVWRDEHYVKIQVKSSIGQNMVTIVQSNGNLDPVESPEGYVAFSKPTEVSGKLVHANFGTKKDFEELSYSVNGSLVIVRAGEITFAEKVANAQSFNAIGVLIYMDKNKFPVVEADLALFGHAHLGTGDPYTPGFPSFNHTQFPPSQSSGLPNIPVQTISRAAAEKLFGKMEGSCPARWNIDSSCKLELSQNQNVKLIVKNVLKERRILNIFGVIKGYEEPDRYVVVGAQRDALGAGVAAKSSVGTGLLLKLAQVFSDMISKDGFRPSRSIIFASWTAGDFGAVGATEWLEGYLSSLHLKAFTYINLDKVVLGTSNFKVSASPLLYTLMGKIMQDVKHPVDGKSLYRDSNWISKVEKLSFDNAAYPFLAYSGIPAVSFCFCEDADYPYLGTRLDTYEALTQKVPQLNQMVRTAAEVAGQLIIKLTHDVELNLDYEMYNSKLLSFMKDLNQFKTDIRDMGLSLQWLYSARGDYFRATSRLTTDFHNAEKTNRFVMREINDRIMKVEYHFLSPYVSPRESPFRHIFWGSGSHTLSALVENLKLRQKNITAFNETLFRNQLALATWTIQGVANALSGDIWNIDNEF
Chain of purified WT mTfR-1 (ELISA coat) (Q62351 89-763): as the sequence (Q62351 89-763 limits assumed, stated change not applied) above
T1 sequence (P02786 89-760 limits assumed): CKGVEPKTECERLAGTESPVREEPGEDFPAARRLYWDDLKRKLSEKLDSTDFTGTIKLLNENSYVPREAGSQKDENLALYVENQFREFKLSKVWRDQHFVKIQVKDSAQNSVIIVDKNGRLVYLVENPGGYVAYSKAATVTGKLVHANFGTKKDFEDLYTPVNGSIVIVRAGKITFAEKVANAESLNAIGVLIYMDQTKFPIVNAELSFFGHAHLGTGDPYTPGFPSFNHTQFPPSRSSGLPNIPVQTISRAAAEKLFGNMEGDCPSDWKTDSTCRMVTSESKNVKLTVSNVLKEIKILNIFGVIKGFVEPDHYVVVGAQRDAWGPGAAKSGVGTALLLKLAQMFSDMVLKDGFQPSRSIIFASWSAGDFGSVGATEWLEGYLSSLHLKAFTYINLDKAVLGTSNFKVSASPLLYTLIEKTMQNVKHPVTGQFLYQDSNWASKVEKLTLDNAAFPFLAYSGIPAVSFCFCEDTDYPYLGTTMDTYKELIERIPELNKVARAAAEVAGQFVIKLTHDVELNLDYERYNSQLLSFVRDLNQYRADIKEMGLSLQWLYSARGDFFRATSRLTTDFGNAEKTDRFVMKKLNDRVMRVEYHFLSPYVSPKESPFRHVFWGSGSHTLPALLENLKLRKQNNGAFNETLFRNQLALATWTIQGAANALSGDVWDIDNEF
T3 sequence (Q62351 other isoform, or with tags, fused parts or gaps mutant): as the sequence (Q62351 89-763 limits assumed, stated change not applied) above, with N165A counted along it
T4 sequence (Q62351 other isoform, or with tags, fused parts or gaps mutant): as the sequence (Q62351 89-763 limits assumed, stated change not applied) above, with G166A counted along it
T5 sequence (Q62351 other isoform, or with tags, fused parts or gaps mutant): as the sequence (Q62351 89-763 limits assumed, stated change not applied) above, with S167A counted along it

B1: Clone H VNAR-hFc fusion (Fc fusion, not shown: a dimerising Fc or GST)
chain: ARVDQTPQTITKETGESLTINCVLRDSNCELSSTYWYRKKSGSTNEESISKGGRYVETVNSGSKSFSLRINDLVVEDSGTYRCNVQQFPSSSNGRYWCDVYGGGTAVTVNA
notes: bivalent VNAR-Fc
Take B1: the dissociation constant (Kd) in test [1] was 6.11 nM; in test [2] it was 2.54 nM. Further, the koff in test [1] stood at 0.00183 s⁻¹; in test [2], 9.11e-05 s⁻¹. For the same molecule, the kon was found to be 301000 M⁻¹ s⁻¹ in test [1] and 35800 M⁻¹ s⁻¹ in test [2]. The EC50 in test [3] was determined as 1.6 nM; in test [4], 5.7 nM; in test [5], 170 nM; in test [6], 6.6 nM. The “fold reduction of binding relative to WT mTfR-1” value in test [7] is around 10 fold.

B2: Clone H variant 6 VNAR-hFc (Fc fusion, not shown: a dimerising Fc or GST)
chain: ARVDQTPQTITKETGESLTINCVLRDSNCELSSTYWYRKKSGSTNEESISKGGRYVETVNSGSKSFSLRINDLVVEDSGTYRCNVQQFPSRNNGRYWCDVYGGGTAVTVNA
Regarding B2, in test [2], the Kd turned out to be 16.5 nM, the koff was 0.000417 s⁻¹ and the kon came out at 25300 M⁻¹ s⁻¹.

B3: Clone H variant 5 VNAR-hFc (Fc fusion, not shown: a dimerising Fc or GST)
chain: ARVDQTPQTITKETGESLTINCVLRDSNCELSSTYWYRKKSGSTNEESISKGGRYVETVNSGSKSFSLRINDLVVEDSGTYRCNVQQFPNRWNGRYWCDVYGGGTAVTVNA
On to B3, for which, in test [2], the Kd was determined as 11 nM, the koff was 0.000369 s⁻¹ and the kon amounted to 33700 M⁻¹ s⁻¹.

B4: Clone H variant 2 VNAR-hFc (Fc fusion, not shown: a dimerising Fc or GST)
chain: ARVDQTPQTITKETGESLTINCVLRDSNCELSSTYWYRKKSGSTNEESISKGGRYVETVNSGSKSFSLRINDLVVEDSGTYRCNVQQFPSSWPFRYWCDVYGGGTAVTVNA
B4: in test [1], the Kd amounted to 3.77 nM, the koff stood at 0.000403 s⁻¹ and the kon turned out to be 107000 M⁻¹ s⁻¹. Also, in test [2], the Kd amounted to 25.2 nM, the koff turned out to be 0.000482 s⁻¹ and the kon was determined as 19100 M⁻¹ s⁻¹.

B5: Clone H variant 10 VNAR-hFc (Fc fusion, not shown: a dimerising Fc or GST)
chain: ARVDQTPQTITKETGESLTINCVLRDSNCELSSTYWYRKKSGSTNEESISKGGRYVETVNSGSKSFSLRINDLVVEDSGTYRCNVQQFPSWFNGRYWCDVYGGGTAVTVNA
notes: also called clone H var; 10
Take B5: the Kd came out at 3.37 nM in test [1] and 5.53 nM in test [2]. For the same molecule, the dissociation rate constant (koff) in test [1] turned out to be 0.000269 s⁻¹; in test [2] it was 0.000279 s⁻¹. For the same molecule, the kon in test [1] was 79900 M⁻¹ s⁻¹; in test [2], 50500 M⁻¹ s⁻¹. Besides, the EC50 in test [3] was 2.5 nM; in test [4], 3.3 nM; in test [5] it was 22 nM; in test [6], 4 nM. Moreover, the “fold reduction of binding relative to WT mTfR-1” value in test [7] was around 10 fold.

B6: Clone H variant 7 VNAR-hFc (Fc fusion, not shown: a dimerising Fc or GST)
chain: ARVDQTPQTITKETGESLTINCVLRDSNCELSSTYWYRKKSGSTNEESISKGGRYVETVNSGSKSFSLRINDLVVEDSGTYRCNVQQFPTRTNGRYWCDVYGGGTAVTVNA
As to B6, in test [2], the Kd came to 15.6 nM, the koff worked out at 0.000399 s⁻¹ and the kon came to 25600 M⁻¹ s⁻¹.

B7: Clone H variant 1 VNAR-hFc (Fc fusion, not shown: a dimerising Fc or GST)
chain: ARVDQTPQTITKETGESLTINCVLRDSNCELSSTYWYRKKSGSTNEESISKGGRYVETVNSGSKSFSLRINDLVVEDSGTYRCNVVQWPSSSNGRYWCDVYGGGTAVTVNA
notes: also called clone H var
For B7, the Kd in test [1] is 2.38 nM; in test [2] it was 4.69 nM. Moreover, the koff in test [1] is 0.000121 s⁻¹; in test [2], 0.000195 s⁻¹. Also, the kon in test [1] is 50800 M⁻¹ s⁻¹; in test [2] it was 41600 M⁻¹ s⁻¹. Besides, the EC50 in test [3] amounted to 0.69 nM; in test [4], 1.4 nM; in test [5], 4.7 nM; in test [6] it was 0.99 nM. Besides, the “fold reduction of binding relative to WT mTfR-1” value in test [7] was around 10 fold.

B8: Clone H variant 3 VNAR-hFc (Fc fusion, not shown: a dimerising Fc or GST)
chain: ARVDQTPQTITKETGESLTINCVLRDSNCELSSTYWYRKKSGSTNEESISKGGRYVETVNSGSKSFSLRINDLVVEDSGTYRCNVQQFPSWGNGRYWCDVYGGGTAVTVNA
Regarding B8, in test [1], the Kd is 4.71 nM, the koff was 0.000254 s⁻¹ and the kon came out at 53900 M⁻¹ s⁻¹. Further, in test [2], the Kd was found to be 5.59 nM, the koff stood at 0.000273 s⁻¹ and the on-rate constant (kon) was found to be 48900 M⁻¹ s⁻¹.

B9: Clone H variant 8 VNAR-hFc (Fc fusion, not shown: a dimerising Fc or GST)
chain: ARVDQTPQTITKETGESLTINCVLRDSNCELSSTYWYRKKSGSTNEESISKGGRYVETVNSGSKSFSLRINDLVVEDSGTYRCNVQQFPSRHNGRYWCDVYGGGTAVTVNA
Regarding B9, in test [1], the Kd was found to be 25 nM, the koff came to 0.000948 s⁻¹ and the kon came to 38000 M⁻¹ s⁻¹. For the same molecule, in test [2], the Kd came to 8.4 nM, the koff came to 0.000618 s⁻¹ and the kon was found to be 73600 M⁻¹ s⁻¹.

B10: Clone H variant 4 VNAR-hFc (Fc fusion, not shown: a dimerising Fc or GST)
chain: ARVDQTPQTITKETGESLTINCVLRDSNCELSSTYWYRKKSGSTNEESISKGGRYVETVNSGSKSFSLRINDLVVEDSGTYRCNVQQFPSRFNGRYWCDVYGGGTAVTVNA
As for B10, in test [1], the Kd is 15.9 nM, the koff was 0.00183 s⁻¹ and the kon turned out to be 115000 M⁻¹ s⁻¹. Further, in test [2], the Kd was 12.4 nM, the koff came out at 0.000352 s⁻¹ and the on-rate constant (kon) was found to be 28300 M⁻¹ s⁻¹.
